# Test results taken from patent publication US20210283178A1.
# Columns and labels:
# [1] = target: SLL-HLA-A2 complex (NY-ESO-1 peptide … loaded on recombinant human HLA-A2:Ig fusion protein, DimerX I) (human); test: flow cytometry of CAR-T cells incubated with biotinylated SLL-HLA-A2, then streptavidin-APC; 82.6% GFP+ APC- (lower right); untransduced T cells: 0.04% in the upper right quadrant
# [2] = target: HLA-A2 alone (recombinant human HLA-A2:Ig fusion protein, DimerX I, without added peptide) (human); test: flow cytometry of CAR-T cells incubated with biotinylated HLA-A2, then streptavidin-APC; 82.9% GFP+ APC- (lower right); untransduced T cells: 0.02% in the upper right quadrant
# [3] = target: AIQ-HLA-A2 complex (… peptide loaded on recombinant human HLA-A2:Ig fusion protein, DimerX I) (human); test: flow cytometry of CAR-T cells incubated with biotinylated AIQ-HLA-A2, then streptavidin-APC; 82.4% GFP+ APC- (lower right); untransduced T cells: 0.00% in the upper right quadrant
substance,measurement,setting,value
CD19 CAR expressed on human CD8+ T cells,% of cells in the upper right quadrant (GFP+ / streptavidin-APC+),[1],0.03%
same,% of cells in the upper right quadrant (GFP+ / streptavidin-APC+),[2],0.13%
same,% of cells in the upper right quadrant (GFP+ / streptavidin-APC+),[3],0.17%
